Test results from patent US20240247047A1.

Target: human BTLA (wild-type) on cells (human) (UniProt Q7Z6A9)
Test: cell-based or functional assay

Sequence of human BTLA (wild-type) on cells (human) (Q7Z6A9 31-289): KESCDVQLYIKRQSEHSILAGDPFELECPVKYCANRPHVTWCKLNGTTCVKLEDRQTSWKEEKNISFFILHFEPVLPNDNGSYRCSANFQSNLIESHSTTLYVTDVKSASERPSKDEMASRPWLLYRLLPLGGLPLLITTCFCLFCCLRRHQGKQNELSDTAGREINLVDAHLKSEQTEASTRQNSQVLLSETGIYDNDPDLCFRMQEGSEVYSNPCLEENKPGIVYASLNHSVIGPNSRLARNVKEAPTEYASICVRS

human CMV UL144-Fc (Fc fusion) gave an ERK1/2 phosphorylation, control JTAg cells activated with co-immobilized anti-CD3 and Fc protein of 50 to 70 % reduction, a ZAP70/Syk phosphorylation, JTAg cells with ectopic BTLA of 15 to 25% and a phosphorylation of ERK, Akt and cellular phosphotyrosines, BJAB cells activated with co-immobilized anti-IgM and titrated Fc protein of 50 % reduction.
